Results published in patent publication US20260132208A1 (DOMAIN THERAPEUTICS, published 2026).
Each block holds one binder with its values, some of them ahead of it.

Experiments:
human CCR8 [1] = target: T1, human CCR8 (human, UniProt P51685 1-355); assay: cell-based or functional assay
human CCR8 [2] = target: T1, human CCR8; assay: cell-based or functional assay; remark: listed apart in the source
pwt1 = target: T2, pwt1 (none (unmodified peptide)); assay: ELISA on coated peptide [cont.]
T2 construct: also called unmodified CCR8 N-terminal peptide
T2 sequence (peptide, as listed by the source): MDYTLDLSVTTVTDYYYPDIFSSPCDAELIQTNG
How it was run: (§1)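 Binding signal was the OD following TMB colour development for 15 min. The mAbs (1 μg/mL and a 1/10 dilution) were incubated 90 min at room temperature on wells coated with 500 ng/ml peptide.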

pm1 = target: T3, pm1 (sulfated tyrosine(s) among Y15, Y16, Y17; which ones is not told (the underlining of Table 1 is lost in the text)); assay: ELISA on coated peptide [cont.]
T3 construct: also called sulfated CCR8 N-terminal peptide pm1
T3 sequence (peptide, as listed by the source): as above
How it was run: as §1

pm2 = target: T4, pm2 (sulfated tyrosine(s) among Y15, Y16, Y17; which ones is not told (the underlining of Table 1 is lost in the text)); assay: ELISA on coated peptide [cont.]
T4 construct: also called sulfated CCR8 N-terminal peptide pm2
T4 sequence (peptide, as listed by the source): as above
How it was run: as §1

pm3 = target: T5, pm3 (Y17 sulfated; Y15 and Y16 not sulfated); assay: ELISA on coated peptide [cont.]
T5 construct: also called sulfated CCR8 N-terminal peptide pm3
T5 sequence (peptide, as listed by the source): as above
How it was run: as §1

pm4 = target: T6, pm4 (sulfated tyrosine(s) among Y15, Y16, Y17; which ones is not told (the underlining of Table 1 is lost in the text)); assay: ELISA on coated peptide [cont.]
T6 construct: also called sulfated CCR8 N-terminal peptide pm4
T6 sequence (peptide, as listed by the source): as above
How it was run: as §1

pm5 = target: T7, pm5 (Y15 and Y17 sulfated; Y16 not sulfated); assay: ELISA on coated peptide [cont.]
T7 construct: also called sulfated CCR8 N-terminal peptide pm5
T7 sequence (peptide, as listed by the source): as above
How it was run: as §1

pm6 = target: T8, pm6 (Y16 and Y17 sulfated; Y15 not sulfated); assay: ELISA on coated peptide [cont.]
T8 construct: also called sulfated CCR8 N-terminal peptide pm6
T8 sequence (peptide, as listed by the source): as above
How it was run: as §1

pm8 = target: T9, pm8 (Y15, Y16 and Y17 sulfated); assay: ELISA on coated peptide [cont.]
T9 construct: also called sulfated CCR8 N-terminal peptide pm8
T9 sequence (peptide, as listed by the source): as above
How it was run: as §1

[3] = target: human CCR8 with a SNAP-tag at the N-terminus (human, UniProt P51685 1-355, SNAP-tag labelled covalently with Lumi4-Terbium); assay: cell-based or functional assay
human CCR8 [4] = target: T1, human CCR8; assay: flow cytometry, hCCR8-transfected CHO-K1 cells
Experimental: The same staining protocol was applied on human CCR8 transfected CHO cell line versus wild type CHO cell line, cutaneous T cell lymphoma HUT78 cell line and human activated T cell model.
Briefly, 1.10⁵ cells per well in a 96 well plate were incubated with a dilution of unconjugated anti-CCR8 mAb at 10 μg/mL then diluted at 1/3.33, 4 dilution points (during 30 min at 4° C.). […] Subsequently, cells are centrifuged (5 min at 400 g) and bound antibody is detected with F(ab′)2-Goat anti-Mouse IgG (H+L) Cross-Adsorbed Secondary Antibody, Alexa Fluor 488 (dilution 1/500) (Invitrogen by Thermofisher Scientific, Illkirch-Graffenstaden, France) or with F(ab′)₂-Goat anti-Human IgG Fc Secondary Antibody, PE (Invitrogen by Thermofisher Scientific, Illkirch-Graffenstaden, France) (dilution 1/1000) at 4° C. for 30 min. […] Bound detection antibody is quantified on a MacsQuant16 (Miltenyi, Gladbach, Germany) (B1 or B2 channel, 5000 events per acquisition). […] EC50 values were determined via nonlinear fit “log (agonist) vs.response—Variable slope (four parameters)” function of Graphpad prism. EC50 values were not constantly determined in the same experiments.

- residual hCCL1 (100 nM) Gi2 response, protocol #2, mAb 0.08 µg/mL (human CCR8 [1]): 62%
- residual hCCL1 (100 nM) Gi2 response, protocol #2, mAb 0.4 µg/mL (human CCR8 [1]): 38%
- residual hCCL1 (100 nM) Gi2 response, protocol #2, mAb 10 µg/mL (human CCR8 [1]): 30%
- residual hCCL1 (100 nM) Gi2 response, protocol #3, mAb 0.05 µg/mL (human CCR8 [1]): 94%
- residual hCCL1 (100 nM) Gi2 response, protocol #3, mAb 0.5 µg/mL (human CCR8 [1]): 63%
- residual hCCL1 (100 nM) Gi2 response, protocol #3, mAb 5 µg/mL (human CCR8 [1]): 39%
- IC50 (read off the curve), inhibition of hCCL1 induced Gi2 signaling, No Wash-out (human CCR8 [2]): ~0.02 µg/mL
- IC50 (read off the curve), inhibition of hCCL1 induced Gi2 signaling, Wash-out (6 h) (human CCR8 [2]): ~0.06 µg/mL
- binding result (pwt1): binds
- binding result (pm1): binds
- binding result (pm2): binds
- binding result (pm3): binds
- binding result (pm4): binds
- binding result (pm5): binds
- binding result (pm6): binds
- binding result (pm8): binds
B1: anti-CCR8 mAb 1-20 (antibody, human IgG1, kappa)
heavy: not shown
light: DIVMTQAAPSLSVTPGESASISCTSSKSLLHSNGNTYLYWFLQKPGQSPQLLIYRMSNLASGVPDRFSGSGSGTAFTLKISRVEAEDVGVYYCMQHREYPFTFGSGTKLEIKRTVAAPSVFIFPPSDEQLKSGTASVVCLLNNFYPREAKVQWKVDNALQSGNSQESVTEQDSKDSTYSLSSTLTLSKADYEKHKVYACEVTHQGLSSPVTKSFNRGEC
notes: Humanized mAb, human IgG1 / kappa

- residual hCCL1 (100 nM) Gi2 response, protocol #2, mAb 0.08 µg/mL (human CCR8 [1]): 94%
- residual hCCL1 (100 nM) Gi2 response, protocol #2, mAb 0.4 µg/mL (human CCR8 [1]): 77%
- residual hCCL1 (100 nM) Gi2 response, protocol #2, mAb 10 µg/mL (human CCR8 [1]): 31%
- residual hCCL1 (100 nM) Gi2 response, protocol #3, mAb 0.05 µg/mL (human CCR8 [1]): 110%
- residual hCCL1 (100 nM) Gi2 response, protocol #3, mAb 0.5 µg/mL (human CCR8 [1]): 76%
- residual hCCL1 (100 nM) Gi2 response, protocol #3, mAb 5 µg/mL (human CCR8 [1]): 33%
- % hCCR8 internalization with CCL1 300 nM, mAb 1 µg/ml (HTRF) [3]: 139%
- % hCCR8 internalization with CCL1 300 nM, mAb 10 µg/ml (HTRF) [3]: 52%
- binding result (pm1): binds
- binding result (pm3): binds
- binding result (pm4): binds
- binding result (pm5): binds
- binding result (pm6): binds
- binding result (pm8): binds
B2: anti-CCR8 mAb 1-22 (antibody, human IgG1, kappa, V domains shown)
VH: EVQLLESGGGLVQPGGSLRLSCAASGFTFNAYAMNWVRQAPGKGLEWVARIRSKSNDYATYYGDSVKGRFTISRDNSKNTLYLQMNSLRAEDTAVYYCVRGREAYYRYDGGYYAMDVWGQGTTVTVSS
VL: DIVMTQSPLSLPVTPGEPASISCRSSKSLLHSNGNTYLYWFLQKPGQSPQLLIYRVSNLASGVPDRFSGSGSGTDFTLKISRVEAEDVGVYYCMQHREYPFTFGQGTKLEIKR
notes: as for B1

- EC50 (human CCR8 [4]): 100 pM
B3: anti-CCR8 mAb 1-25 (antibody, human IgG1, kappa, V domains shown)
VH: QVQLVESGGGVVQPGRSLRLSCAASGFTFSNYRMHWVRQAPGKGLEWIAVIKVKSDNYGANYADSVKGRFTISRDNSKNTLYLQMNSLRAEDTAVYYCSSPTYPGSSGFAYWGQGTLVTVSS
VL: DIQMTQSPSSLSASVGDRVTITCRASQDISNYLNWYQQKPDGTVKLLIYYTSRLHTGVPSRFSGSGSGTDYTLTISNLQQEDIATYFCQQGNKFPPTFGGGTKVEINR
notes: as for B1
